In patent publication US6570069B1, “Nucleic acids encoding plant inhibitors of apoptosis and transgenic cells and plants expressing them” (priority 2000, dated 2003):
“Also recorded” adds a separate entry of the source.

T1: caspase-3 (Homo sapiens, UniProt P42574)
T1 construct: His6 (C); made in house
T1 sequence (P42574 29-175 limits assumed): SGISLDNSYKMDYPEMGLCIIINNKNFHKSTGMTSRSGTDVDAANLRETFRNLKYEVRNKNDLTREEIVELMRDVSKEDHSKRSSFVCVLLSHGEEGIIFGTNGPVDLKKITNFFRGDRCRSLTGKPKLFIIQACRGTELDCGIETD
T1 sequence (P42574 176-277 limits assumed): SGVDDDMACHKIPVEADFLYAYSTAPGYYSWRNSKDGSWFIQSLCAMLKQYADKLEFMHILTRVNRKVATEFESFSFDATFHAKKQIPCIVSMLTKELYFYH


Legend:
caspase-3 = target: T1, caspase-3; assay: Binding to recombinant purified caspase-3; design: species or system mammalian
Experimental: pGEX4T-1-SfIAP and pGEX4T-1 -CpIAP plasmids were introduced into E. coli strain BL21 (DE3) containing the plasmid pT-Trx. GST fusion proteins were obtained by induction with 0.05 mM IPTG at 25° C. for 8 hours, then purified using glutathione-Sepharose, essentially as described (Deveraux, Q., Welsh, K. & Reed, J. Methods of Enzymology in press). Caspases-3, and -7, containing C-terminal His6-tags, and caspase-8 containing an N-terminal His6-tag were purified as described previously (Stennicke, H. R. & Salvesen, G. S. (I1997) J. Biol. Chem. 272, 25719-25723; Stennicke, H., et al., (1998) J. Biol. Chem. 273, 27084-27090; Stennicke, H., et al., (1999) J. Biol. Chem. 274, 8359-8362). Caspase-9 lacking the CARD domain (ΔCARD-caspase-9) was constructed by truncating the cDNA and introducing a start codon substituting Val139. The resulting cDNA was subcloned into pET-23b and expressed in BL21 (DE3), yielding fully processed enzyme when cells were induced using 0.2 mM IPTG at OD600=0.6 for 4 hrs (Stennicke, H., Deveraux, Q., Humike, E., Reed, J., Dixit, V. & Salvesen, G. (1999) J. Biol. Chem. 274, 8359-8362). […] Concentrations of purified enzymes were determined from absorbance at 280 nm based on the molar absorption coefficients: caspase-3 (A280=26,000M−1 cm−1), caspase-7 (A280=24,500 M−1 cm−1), caspase-9 (A280=30,010M−1 cm−1). […]

[1] = system: apoptosis induced by AcMNPV p35 mutant virus in Sf-21 cells; assay: Rescue of AcMNPV p35-deleted virus in Sf-21 cells (occlusion body formation); type: cell-based, Spodoptera frugiperda; settings: plasmid co-transfected with AcMNPV p35 mutant viral DNA into Sf-21 cells; observed 72 hrs post-transfection
Experimental: Insect Sf-21 cells were maintained at 27° C. in Excell 401 media (JHR Bioscience) supplemented with 2.5% fetal bovine serum. vP35del, containing a deletion in the p35 gene, was propagated in TN-368 cells (Clem, R. J., et al., (1991) Science 254, 1388-1390). Plasmids encoding full-length or deletion mutants of SfIAP (1 μg) were co-transfected with 1 μg vP35del viral DNA into Sf-21 cells using Lipofectin from Gibco. Occlusion body formation was observed under light microscopy 3 days post-transfection.
SfIAP was tested to see if it also complements. p35-deficiency, preventing apoptosis by this mutant virus, thereby allowing its replication in insect cells. Plasmids containing full-length SfIAP or fragments of SfIAP comprising the two BIRs or the RING domain were co-transfected with AcMNPV p35 mutant viral DNA into Sf-21 cells. Cells were observed 72 hrs post-transfection. […] Thus, analogous to CpIAP and OpIAP, BIR and RING domains of SfIAP are required in combination for inhibition of apoptosis induced by AcMNPV p35 mutant virus.

[2] = system: caspase-3 and similar DEVD-cleaving proteases in cell extracts treated with cyto c; assay: Cell-free caspase activation induced by cyto c in HEK 293 cytosolic extracts; type: biochemical, human; settings: for suppression of pro-caspase-3 processing (immunoblot): cyto c-treated extracts; for effect on hydrolysis of Ac-DEVD-AFC (caspase activity): recombinant protein, cell extracts treated with cyto c
Experimental: Caspase activity was assayed by release of 7-amino-4-trifluoromethyl-coumarin (AFC) from Ac-DEVD or Ac-LEHD-containing synthetic peptides (Calbiochem) using continuous-reading instuments as described (Quan, L. T. et al., (1995) J. Biol. Chem. 270:10377-10379).
Cytosolic extracts were prepared as described (Deveraux, Q., Takahashi, R., Salvesen, G. S. & Reed, J. C. (1997) Nature 388, 300-303) using human embryonic kidney (HEK) 293 cells. Cells were washed with ice-cold buffer A (20 mM HEPES pH 7.5, 10 mM KCl, 1.5 mM MgCl2, 1 mM EDTA and 1 mM DTT), suspended in 1 volume of buffer A, incubated on ice for 20 mins, and then disrupted by 15 passages through a 26-gauge needle. Cell extracts were purified by centrifugation at 15000 g for 12 mins and supernatants were stored at −80 ° C. For initiating caspase activation, either 100 nM of purified recombinant caspase-8 or 1 μM horse heart cytochrome c (Sigma) together with 1 mM dATP was added to extracts (Deveraux, Q. L., et al., (1998) EMBO J. 17, 2215-2223).
To further explore the mechanisms by which SfIAP and CpIAP inhibit mammalian apoptosis, a cell-free system in which exogenously added active caspase-8 or cyto c induces activation of caspase-3 and similar proteases, as measured by hydrolysis of Ac-DEVD-AFC (Quan, L. T. et al., (1995) J. Biol. Chem. 270, 10377-10379) was used. Caspase-8 and cyto c trigger the same apoptosis pathways in extracts which are activated by Fas and Bax in intact cells.

Molecule | binding to caspase-3 (caspase-3) | complementation of p35 deficiency (rescue of mutant virus replication, occlusion body formation) [1] | suppression of pro-caspase-3 processing (immunoblot) [2] | effect on hydrolysis of Ac-DEVD-AFC (caspase activity) [2]
SfIAP: cellular IAP cloned from Spodoptera frugiperda, protein of 377 amino acids (SEQ ID NO:3); GST-fusion when recombinant (protein, listed as Spodoptera frugiperda, GST fusion when recombinant; fall armyworm inhibitor of apoptosis protein (SfIAP)) MWSCSLPCWNTKKSGLQMDITKVASNGSSSTLTLFKSGSLEAKIRPLAPLMLPTPSYDSNAGSPSLSPSTPCSSSSFSIDKTDNHDTFGFSADTVDMRKEDERMKTFEKWPVSFLSGEQLARNGFYYLGRRDEARCAFCKVEIMRWVEGDDPAKDHQRWAPQCPFVRKLNGTAAADTGSSGQDECGARAAPSGTSPPRMAGPVHPRYASEAARLRSFKDWPRCMRQKPEELAEAGFFYTGQGDKTKCFYCDGGLKDWENHDVPWEQHARWFDRCAYVQLVKGREYVQKVISEACEVSASEAERDVAPARTAEPSPPAEAPENSVDDSKLCKICYAEERNVCFVPCGHVVACAKCALAADKCPMCRRTFQNAVRLYFS | neither bound | complemented p35 deficiency | suppressed the processing of pro-caspase-3 in cyto c-treated | completely blocked the hydrolysis of Ac-DEVD-AFC; also recorded: able to inhibit cyto c-induced activation of DEVD-cleaving caspases
CpIAP: baculoviral (CpGV) inhibitor of apoptosis protein; complete ORF expressed myc-tagged or as GST-fusion (protein, left off: a dimerising Fc or GST, complete ORF expressed myc-tagged or as GST-fusion) MSDLRLEEVRLNTFEKWPVSFLSPETMAKNGFYYLGRSDEVRCAFCKVEIMRWKEGEDPAADHKKWAPQCPFVKGIDVCGSIVTTNNIQNTTTHDTIIGPAHPKYAHEAARVKSFHNWPRCMKQRPEQMADAGFFYTGYGDNTKCFYCDGGLKDWEPEDVPWEQHVRWFDRCAYVQLVKGRDYVQKVITEACVLPGENTTVSTAAPVSEPIPETKIEKEPQVEDSKLCKICYVEECIVCFVPCGHVVACAKCALSVDKCPMCRKIVTSVLKVYFS | neither bound |  | suppressed the processing of pro-caspase-3 in cyto c-treated | completely blocked the hydrolysis of Ac-DEVD-AFC
